Patent US20260250371A1 (ULTRAGENYX PHARMACEUTICAL, published 2026)
Values joined by “and” are separate entries in the source; they are usually repeats but may differ in a detail not shown here. Equal values may be shown once. Read-outs that look alike come from different tables or passages of the source.

Experiments:
[1] = target: the molecule itself; test: X-ray crystal structure of the hFGF23(R179Q):burosumab Fab complex
Protocol: To further characterize the human FGF23-burosumab interaction, x-ray crystallographic study was carried out using fully glycosylated human FGF23 (R179Q) from HEK293S cell supernatant in complex with burosumab Fab fragments also expressed in HEK293S cells. Burosumab IgG heavy and light chains were subjected to papain digestion to separate Fc and Fab fragments, then Protein A to isolate Fab fragments of approximately 50 kDa, according to routine methods (Pierce™ Fab Preparation Kit, Thermo Scientific™, cat #!44985). Fully glycosylated human FGF23 (R179Q) and burosumab Fab fragments were incubated on ice for more than one hour (1:0.8 molar ratio) and the stable complex was isolated by size exclusion chromatography (SEC) followed by evaluation by SDS-PAGE. SEC fractions containing the complex were pooled, concentrated, and stored at −80° C.
Diffraction data was collected from a single crystal at the Advanced Photon Source (APS) synchrotron and processed using autoPROC (autoProc, XDS, POINTLESS, AIMLESS, CCP4, and STARANISO) (see Vonrhein C, Flensburg C, Keller P, Sharff A, Smart O, Paciorek W, Womack T, Bricogne G. Data processing and analysis with the autoPROC toolbox. Acta Crystallogr D Biol Crystallogr. 2011 April; 67(Pt 4):293-302. [doi:10.1107/S0907444911007773]). […]

[2] = target: T1, recombinant human FGF23 (R179Q) (human, UniProt Q9GZV9 25-251); test: SPR, antibody captured on hIgG chip, human FGF23 analyte
T1 construct: also called rhFGF23(R179Q); hFGF23(R179Q)
T1 sequence (looked up): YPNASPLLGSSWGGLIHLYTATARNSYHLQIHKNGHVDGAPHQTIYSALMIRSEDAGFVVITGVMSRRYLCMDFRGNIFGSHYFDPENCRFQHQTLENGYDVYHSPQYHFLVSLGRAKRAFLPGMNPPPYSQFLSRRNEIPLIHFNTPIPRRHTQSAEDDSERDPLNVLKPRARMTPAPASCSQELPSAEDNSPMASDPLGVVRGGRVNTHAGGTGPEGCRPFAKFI

[3] = target: T2, cynomolgus monkey (Macaca fascicularis) FGF23 (R179Q) (cynomolgus monkey (Macaca fascicularis), UniProt Q9GZV9 25-251 (human entry), limits assumed); test: SPR, antibody captured on hIgG chip, cynoFGF23(R179Q) analyte, single cycle kinetics
T2 construct: also called cynoFGF23; cynoFGF23(R179Q)
T2 chain: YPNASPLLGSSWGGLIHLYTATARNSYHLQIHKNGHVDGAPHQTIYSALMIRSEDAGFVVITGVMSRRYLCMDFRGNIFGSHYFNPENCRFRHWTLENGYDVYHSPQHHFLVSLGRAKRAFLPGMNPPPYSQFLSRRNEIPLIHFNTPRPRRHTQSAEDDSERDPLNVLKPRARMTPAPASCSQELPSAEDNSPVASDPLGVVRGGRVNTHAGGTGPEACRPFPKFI
Protocol: Binding kinetics of 13 antibody variants shown in Table 19 were characterized against cynomolgus monkey (Macaca fascicularis) FGF23 (R179Q) (i.e., “cynoFGF23”) (SEQ ID NO: 372). Antibody variants were expressed at small scale (3 ml) and screened by SPR analysis at a single concentration (100 nM). Experimental setup of SPR analysis for CRC: SPR device—8K+; chip preparation—CM5 hIgG chip: channels—1-8; immobilization concentration—1.5 ug/ml; immobilization method—capture; flow rate—5 μl/min; contact time—60 s; running buffer—1×HBS-EP+pH 7.4; temperature—20° C.: flow rate—50 μl/min; association time—120 s; dissociation time—1800 s; antigen—cynoFGF23(R179Q): top concentration—0.1 μM, 9-pt 3-fold Single Cycle Kinetics.

[4] = target: T1, recombinant human FGF23 (R179Q); test: SPR, antibody captured on hIgG chip, rhFGF23(R179Q) analyte
[5] = target: T1, recombinant human FGF23 (R179Q); test: as above; remark: listed apart in the source

B1: human FGF23 (R179Q) (ligand, UniProt Q9GZV9 25-251, looked up)
chain: YPNASPLLGSSWGGLIHLYTATARNSYHLQIHKNGHVDGAPHQTIYSALMIRSEDAGFVVITGVMSRRYLCMDFRGNIFGSHYFDPENCRFQHQTLENGYDVYHSPQYHFLVSLGRAKRAFLPGMNPPPYSQFLSRRNEIPLIHFNTPIPRRHTQSAEDDSERDPLNVLKPRARMTPAPASCSQELPSAEDNSPMASDPLGVVRGGRVNTHAGGTGPEGCRPFAKFI
modifications: fully glycosylated (from HEK293S cells)
notes: also called hFGF23(R179Q); rhFGF23(R179Q)
- binding result [1]: binds

B2: UGX144 (antibody, human IgG1, kappa, V domains shown)
VH: QVQLVQSGAEVKKPGASVKVSCKASGYTFTNHYMHWVRQAPGQGLEWMGIINPISGSTSNAQKFQGRVTMTRDTSTSTVYMELSSLRSEDTAVYYCARDIVDAFDFWGQGTMVTVSS
VL: AIQLTQSPSSLSASVGDRVTITCRASQGISSALVWYQQKPGKAPKLLIYDASSLESGVPSRFSGSGSGTDFTLTISSLQPEDFATYYCQQFNDDFTFGPGTKVDIKR
notes: also called LC:Y94D; Y94D
- KD ratio (variant antibody KD/burosumab KD) [2]: 4
- Kd [2]: 5.77 pM
- KD ratio (variant antibody KD/burosumab KD) [3]: 3
- Kd [3]: 6.86 pM
- Kd [4]: 6.58 pM and 5.77 pM
- koff [4]: 7.03e-05 s⁻¹ and 6.31e-05 s⁻¹
- kon [4]: 1.07e+07 M⁻¹ s⁻¹ and 1.09e+07 M⁻¹ s⁻¹
- Kd [5]: 5.77 pM
- Ratio (variant antibody KD/burosumab KD) [5]: 4
- SA (surface activity) [5]: 89.5%
- koff [5]: 6.31e-05 s⁻¹
- kon [5]: 1.09e+07 M⁻¹ s⁻¹
